Results: patent US20250339564A1 (ACADEMISCH ZIEKENHUIS LEIDEN H O D N LUMC, published 2025)

Biological target: T1, Epithelial Cell Adhesion Molecule (EpCAM) (human, UniProt P16422 24-314)
T1 construct: whole, on cells; Target is endogenous EpCAM in patient tumor tissue: in vivo targeting for m1, FFPE sections for the IHC antibodies
T1 sequence (looked up): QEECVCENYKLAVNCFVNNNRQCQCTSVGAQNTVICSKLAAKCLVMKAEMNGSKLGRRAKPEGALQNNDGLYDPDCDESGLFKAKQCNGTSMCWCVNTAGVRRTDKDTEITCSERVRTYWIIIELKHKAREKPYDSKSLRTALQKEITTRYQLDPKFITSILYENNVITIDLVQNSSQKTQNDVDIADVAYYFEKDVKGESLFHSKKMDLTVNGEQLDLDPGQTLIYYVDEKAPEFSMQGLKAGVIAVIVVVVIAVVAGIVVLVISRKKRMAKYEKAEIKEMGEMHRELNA
Assay: NIR fluorescence microscopy (Axio scan) of metastatic lymph node sections after IV dosing, overlaid with EpCAM IHC

B1: VB5-845D-800CW (Fab, V domains shown)
VH: EVQLQQSGPGLVQPGGSVRISCAASGYTFTAYGMNWVRQAPGKGLEWMGWINTYTGESTYADSFKGRFEFSLDTHNSSAYLQIQSLREEDTAVYYCARFAIQGDYWGQGTLVTVSS
VL: DIQMTQSPSSLSASVGDRVTITCKSTKSLLHSNGITYLYWYQQKPGSAPKLLIYQMSHLASGVPSRFSSSGSGTDFTLTISSLQPEDFATYYCAQNLEIPRTFGQGTKVEIKR
modifications: IRDye 800CW conjugated by N-hydroxysuccinimide ester chemistry to primary amines (sites and chain not stated)
B1: binds.
